The text below walks through data of article PMC10426277 (European journal of pharmacology, 2023).

Common to all, as to assay: SPR
(SPR reads the build-up and loss of mass on a sensor chip optically.)

The target of assay [1] is T1, Peroxiredoxin 1 wildtype, recombinant full-length (human, UniProt Q06830 1-199).
T1 sequence (looked up): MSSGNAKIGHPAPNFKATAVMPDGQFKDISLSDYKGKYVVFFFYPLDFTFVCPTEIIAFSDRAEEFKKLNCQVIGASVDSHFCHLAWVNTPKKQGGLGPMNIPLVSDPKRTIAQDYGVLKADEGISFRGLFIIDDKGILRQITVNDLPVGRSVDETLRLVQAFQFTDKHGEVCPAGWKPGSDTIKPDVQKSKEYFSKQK

The target of assay [2] is T2, Peroxiredoxin 1 mutant, last 22 amino acids of the C-terminus deleted (human, UniProt Q06830 1-177).
T2 sequence (looked up): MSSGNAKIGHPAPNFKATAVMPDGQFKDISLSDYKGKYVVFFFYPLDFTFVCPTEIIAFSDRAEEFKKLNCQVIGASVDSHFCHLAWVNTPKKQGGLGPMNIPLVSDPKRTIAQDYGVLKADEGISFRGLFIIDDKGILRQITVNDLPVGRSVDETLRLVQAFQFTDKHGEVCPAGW

For assay [3], the target named is T3, Peroxiredoxin 4 mutant, C-terminal 22 amino acids deleted (human, UniProt Q13162 38-249).
T3 sequence (looked up): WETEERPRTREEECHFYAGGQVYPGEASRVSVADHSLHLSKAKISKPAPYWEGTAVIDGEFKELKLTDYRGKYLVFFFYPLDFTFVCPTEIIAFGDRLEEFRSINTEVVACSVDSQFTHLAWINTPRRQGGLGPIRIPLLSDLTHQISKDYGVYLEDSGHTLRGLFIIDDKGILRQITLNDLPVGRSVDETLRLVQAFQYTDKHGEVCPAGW

B1: Sulfiredoxin (Srx), recombinant full-length (enzyme)
chain: not shown
Regarding B1, in assay [1], the Kd (as a rule, the free concentration of one partner at which half of the binding sites on the other are occupied at equilibrium, for simple one-to-one binding) stood at 769 µM; the koff (commonly the rate constant with which the complex falls apart) turned out to be 0.000532 s⁻¹; the kon (commonly the second-order rate constant of association) was 0.693 M⁻¹ s⁻¹. In assay [2], this molecule had a Kd of 0.175 µM, a koff of 0.000444 s⁻¹ and a kon of 2540 M⁻¹ s⁻¹. Moreover, in assay [3], the Kd is 29.7 µM, the koff worked out at 0.00269 s⁻¹ and the kon turned out to be 90.4 M⁻¹ s⁻¹.
